Data on two molecules can be found in patent publication CN113214399A (SHENZHEN INNOVA NANOBODI CO LTD, dated 2021).

The target in one experiment is T1, 血清标本中的AFP抗原 (UniProt P02771 19-609).
T1 construct: AFP in serum samples, detected by the double-antibody sandwich assay; also called 质控血清AFP; 标准血清中的AFP
T1 sequence (looked up): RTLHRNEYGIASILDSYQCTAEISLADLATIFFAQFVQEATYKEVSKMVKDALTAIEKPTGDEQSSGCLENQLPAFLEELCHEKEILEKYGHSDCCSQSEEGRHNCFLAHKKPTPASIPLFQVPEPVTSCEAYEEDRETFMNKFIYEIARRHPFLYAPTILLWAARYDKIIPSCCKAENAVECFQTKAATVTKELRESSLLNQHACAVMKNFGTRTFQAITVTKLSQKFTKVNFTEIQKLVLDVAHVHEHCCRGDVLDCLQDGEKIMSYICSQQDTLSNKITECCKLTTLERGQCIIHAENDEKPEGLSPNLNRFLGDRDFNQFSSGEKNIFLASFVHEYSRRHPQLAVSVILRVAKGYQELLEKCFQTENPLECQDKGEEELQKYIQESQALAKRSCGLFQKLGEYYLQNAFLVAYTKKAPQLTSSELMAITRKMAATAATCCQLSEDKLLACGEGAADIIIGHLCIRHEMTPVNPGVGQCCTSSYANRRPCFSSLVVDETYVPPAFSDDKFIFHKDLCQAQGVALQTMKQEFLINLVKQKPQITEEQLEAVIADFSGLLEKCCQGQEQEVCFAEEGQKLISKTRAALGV
Description: Double-antibody sandwich chemiluminescence immunoassay, detection antibody.

Experiment [1] has as its target T2, 重组AFP抗原 (甲胎蛋白, α-fetoprotein) (UniProt P02771 19-609, limits assumed).
T2 construct: Bought recombinant antigen used to immunise the alpaca
T2 sequence (looked up): T1 sequence (looked up)
As to the kind of experiment: Biacore sequential injection on immobilised antigen. A general note: In SPR one partner is held on a chip, and binding of the other changes the refractive index at the surface.

B1: 带有化学发光区序列的纳米抗体1C5-HAP (other)
chain: QVQLQESGGGLVQAGGSLRLSCKASERTFSSYSMAWYRQAPGKKREFVASISWDDERTYYTDSVKGRFTISRPNAKNTVYLQMNSLKPEDTAVYYCAVGGLSDGLGPSYDYWGQGTQVTVSSGGGGSGGGGSGGGGSIIPVEEENPDFWNREAAEALGAAKKLQPAQTAAKNLIIFLGDGMGVSTVTAARILKGQKKDKLGPEIPLAMDRFPYVALSKTYNVDKHVPDSGATATAYLCGVKGNFQTIGLSAAARFNQCNTTRGNEVISVMNRAKKAGKSVGVVTTTRVQHASPAGTYAHTVNRNWYSDADVPASARQEGCQDIATQLISNMDIDVILGGGRKYMFRMGTPDPEYPDDYSQGGTRLDGKNLVQEWLAKRQGARYVWNRTELMQASLDPSVTHLMGLFEPGDMKYEIHRDSTLDPSLMEMTEAALRLLSRNPRGFFLFVEGGRIDHGHHESRAYRALTETIMFDDAIERAGQLTSEEDTLSLVTADHSHVFSFGGYPLRGSSIFGLAPGKARDRKAYTVLLYGNGPGYVLKDGARPDVTESESGSPEYRQQSAVPLDEETHAGEDVAVFARGPQAHLVHGVQEQTFIAHVMAFAACLEPYTACDLAPPAGTTD
notes: Expressed in 293 cells
Consider B1, for which the binding result with 血清标本中的AFP抗原 is on record as “binds”.

B2: 纳米抗体1C5 (VHH)
VHH: QVQLQESGGGLVQAGGSLRLSCKASERTFSSYSMAWYRQAPGKKREFVASISWDDERTYYTDSVKGRFTISRPNAKNTVYLQMNSLKPEDTAVYYCAVGGLSDGLGPSYDYWGQGTQVTVSS
With B2, the binding result in experiment [1] is reported as “binds”.
